Results as given in patent publication US20050238685A1, “Method of binding a compound to a surface” (priority 2002, published 2005).
Like-named read-outs stand apart in the source and are kept apart here.

B1: alkaline phosphatase: human placental alkaline phosphatase (Roche) (protein)
chain: IIPVEEENPDFWNREAAEALGAAKKLQPAQTAAKNLIIFLGDGMGVSTVTAARILKGQKKDKLGPEIPLAMDRFPYVALSKTYNVDKHVPDSGATATAYLCGVKGNFQTIGLSAAARFNQCNTTRGNEVISVMNRAKKAGKSVGVVTTTRVQHASPAGTYAHTVNRNWYSDADVPASARQEGCQDIATQLISNMDIDVILGGGRKYMFRMGTPDPEYPDDYSQGGTRLDGKNLVQEWLAKRQGARYVWNRTELMQASLDPSVTHLMGLFEPGDMKYEIHRDSTLDPSLMEMTEAALRLLSRNPRGFFLFVEGGRIDHGHHESRAYRALTETIMFDDAIERAGQLTSEEDTLSLVTADHSHVFSFGGYPLRGSSIFGLAPGKARDRKAYTVLLYGNGPGYVLKDGARPDVTESESGSPEYRQQSAVPLDEETHAGEDVAVFARGPQAHLVHGVQEQTFIAHVMAFAACLEPYTACDLAPPAGTTD
B2: cryparin: class II hydrophobin of Cryphonectria parasitica (protein, UniProt P52753 23-118, looked up)
Class II hydrophobin CRP: GGGGGGSGSGSGSGSGSGSGGGSTTYTACSSTLYSEAQCCATDVLGVADLDCETVPETPTSASSFESICATSGRDAKCCTIPLLGQALLCQDPVGL
B3: SC3: class I hydrophobin of Schizophyllum commune (protein)
chain: GGHPGTTTPPVTTTVTVTTPPSTTTIAAGGTCTTGSLSCCNQVQSASSSPVTALLGLLGIVLSDLNVLVGISCSPLTVIGVGGSGCSAQTVCCENTQFNGLINIGCTPINIL
B4: trypsin: bovine pancreas trypsin, 25 kD (protein)
chain: IVGGYTCGANTVPYQVSLNSGYHFCGGSLINSQWVVSAAHCYKSGIQVRLGEDNINVVEGNEQFISASKSIVHPSYNSNTLNNDIMLIKLKSAASLNSRVASISLPTSCASAGTQCLISGWGNTKSSGTSYPDVLKCLKAPILSDSSCKSAYPGQITSNMFCAGYLEGGKDSCQGDSGGPVVCSGKLQGIVSWGSGCAQKNKPGVYTKVCNYVSWIKQTIASN
B5: esterase: porcine liver esterase, 60 kD (protein)
chain: GQPASPPVVDTAQGRVLGKYVSLEGLAQPVAVFLGVPFAKPPLGSLRFAPPQPAEPWSFVKNTTSYPPMCCQDPVVEQMTSDLFTNGKERLTLEFSEDCLYLNIYTPADLTKRGRLPVMVWIHGGGLVLGGAPMYDGVVLAAHENVVVVAIQYRLGIWGFFSTGDEHSRGNWGHLDQVAALHWVQENIANFGGDPGSVTIFGESAGGESVSVLVLSPLAKNLFHRAISESGVALTVALVRKDMKAAAKQIAVLAGCKTTTSAVFVHCLRQKSEDELLDLTLKMKFLTLDFHGDQRESHPFLPTVVDGVLLPKMPEEILAEKDFNTVPYIVGINKQEFGWLLPTMMGFPLSEGKLDQKTATSLLWKSYPIANIPEELTPVATDKYLGGTDDPVKKKDLFLDLMGDVVFGVPSVTVARQHRDAGAPTYMYEFQYRPSFSSDKKPKTVIGDHGDEIFSVFGFPLLKGDAPEEEVSLSKTVMKFWANFARSGNPNGEGLPHWPMYDQEEGYLQIGVNTQAAKRLKGEEVAFWNDLLSKEAAKKPPKIKHAEL
B6: cerato-ulmin: class II hydrophobin of Ophiostoma ulmi (protein, UniProt Q06153 26-100, looked up)
Class II hydrophobin CU: SDSYDPCTGLLQKSPQCCNTDILGVANLDCHGPPSVPTSPSQFQASCVADGGRSARCCTLSLLGLALVCTDPVGI

Key:
[1] = class I: resisting 2% SDS at 100° C., class II: 60% ethanol; cited from earlier work
[2] = at 50 μg ml^−1; cited from earlier work
[3] = cited from earlier work
[4] = type: biochemical
Experimental: The sheets were removed from the hydrophobin solution and were immediately washed with large amounts of water to remove any unbound hydrophobin (5×50 ml water for five minutes); these coatings are referred to as the α-helix state. Part of the sheets were boiled in a 2% SDS solution for ten minutes, after which the sheets were extensively washed with water; these coatings are referred to as the β-sheet state. The colloidal TEFLON™ was collected by gentle centrifugation (two minutes, 2000 rpm), the supernatant was removed and the TEFLON™ pellet was resuspended in 2 ml pure water followed by centrifugation. The TEFLON™ pellet was washed five times with water to remove all unbound hydrophobin.
The bare and hydrophobin-coated sheets (α-helix state and β-sheet state) were incubated in 2 ml of enzyme solution in 3 ml glass vials at 25° C. for two hours. The used enzyme solutions were 100 μg/ml of 60 kD esterase (porcine liver), 40 kD lipase (wheat germ), or 25 kD trypsin (bovine pancreas). The sheets were washed extensively with water to remove any unbound enzyme.
The sheets with and without immobilized enzyme were used in a chromogenic assay. A 1.5 ml cuvette was filled with 1 ml of a 5 mM 4-nitrophenyl acetate solution (esterase substrate), 5 mM Na-benzoyl-DL-arginine-p-nitroanilide (trypsin substrate), or 5 mM 1,2-di-O-decanoyl-rac-glycero-3-glutaric acid-resorufin labeled in the appropriate buffers. The cuvette was placed in the spectrophotometer and the reaction was started by placing the hydrophobin-coated sheets with or without immobilized enzyme in the cuvette parallel to the light beam. The light absorbance at the appropriate wavelength was followed in time. After one hour of incubation, the sheets were taken from the cuvette and the reaction in the cuvette was followed for an additional 24 hours. The sheets were washed with water and were transferred to a new cuvette with fresh substrate and the reaction was followed again. […] 400 μl of a 100 μg/ml solution of the mentioned enzymes was added to a 1 mm cuvette and a circular dichroism spectrum was recorded between 190 and 250 nm. To this solution, increasing concentrations of pure colloidal TEFLON™ or hydrophobin-coated TEFLON™ was added and changes were followed by recording CD-spectra. […] When TEFLON™ coated with hydrophobin is added to the enzyme solutions, the changes in CD signal (after correction for the hydrophobin signal) are less pronounced. […] Furthermore, oil droplets were coated with hydrophobin. Coating of oil droplets was achieved by emulsifying 100 μl of oil (mineral oil or paraffin oil) in 3 ml of water by sonication and adding 3 ml of an aqueous solution of hydrophobin (200 μg/ml). Alternatively, the oil was directly emulsified in the hydrophobin solution and 3 ml was added. […]

[5] = Circular dichroism of enzymes on binding to bare or hydrophobin-coated colloidal TEFLON; type: physicochemical; conditions: bare colloidal TEFLON
[6] = Different enzymes immobilized via SC3 hydrophobin on TEFLON, spectrophotometry at 412 and 435 nm; type: biochemical; conditions: SC3-coated TEFLON; for function after storage: 4° C. in buffer solution
Experimental: The surface was first coated with SC3 hydrophobin by immersion in the protein aqueous solution (0.3 mg/mL) during approximately 30 minutes. The obtained modified surface was then immersed in an aqueous enzyme solution during approximately 30 minutes. After each step, the TEFLON™ surface was rinsed with an adequate buffer solution. Activity of the immobilized enzymes was followed by spectrophotometry at 412 and 435 nm after immersion of the functionalized surface in the corresponding substrate solution. The optical density of the solution increases after the immersion of the functionalized surface and stays constant after its removal. […] The functionalized TEFLON® was stored at 4° C. in an Eppendorf tube containing a buffer solution.
(Biocatalysts, Wales; final concentration 2.1 mg/mL), lipase from Candida cylindracea (Biocatalysts, Wales; final concentration 0.25 mg/mL), porcine liver esterase (SIGMA; 41 U/mg of solid, final concentration 2.4 mg/mL), bovine pancreas trypsin (SIGMA; 8,750 U/mg of solid).

[7] = Esterase, lipase and trypsin on SC3-coated oil droplets, spectrophotometric substrate conversion; type: biochemical
Experimental: The sheets with and without immobilized enzyme were used in a chromogenic assay. A 1.5 ml cuvette was filled with 1 ml of a 5 mM 4-nitrophenyl acetate solution (esterase substrate), 5 mM Na-benzoyl-DL-arginine-p-nitroanilide (trypsin substrate), or 5 mM 1,2-di-O-decanoyl-rac-glycero-3-glutaric acid-resorufin labeled in the appropriate buffers. The cuvette was placed in the spectrophotometer and the reaction was started by placing the hydrophobin-coated sheets with or without immobilized enzyme in the cuvette parallel to the light beam. The light absorbance at the appropriate wavelength was followed in time. After one hour of incubation, the sheets were taken from the cuvette and the reaction in the cuvette was followed for an additional 24 hours. The sheets were washed with water and were transferred to a new cuvette with fresh substrate and the reaction was followed again. […] 400 μl of a 100 μg/ml solution of the mentioned enzymes was added to a 1 mm cuvette and a circular dichroism spectrum was recorded between 190 and 250 nm. To this solution, increasing concentrations of pure colloidal TEFLON™ or hydrophobin-coated TEFLON™ was added and changes were followed by recording CD-spectra. […] When TEFLON™ coated with hydrophobin is added to the enzyme solutions, the changes in CD signal (after correction for the hydrophobin signal) are less pronounced. […]

Molecule	solubility of assembled membranes [1]	activity and stability of enzyme attached to hydrophobin-coated sheets [4]	activity of enzyme attached to bare sheets [4]	structural change in CD-spectra upon binding [5]	state of immobilized enzymes (denaturation, desorption) [6]	function after storage [6]	catalytic activity of immobilized enzyme [7]	also measured
B1								activity of enzyme attached to bare wells: not active
B2	readily dissociate in 60% ethanol and in 2% SDS							
B3								maximal lowering of the water surface tension, from 72 to [2]: 24 mJ m^−2; water contact angle of coated TEFLON ([3]; TEFLON (110°) coated with hydrophobin): 48 °; water contact angle ([3]; hydrophilic side of the membrane): 36 °; water contact angle ([3]; hydrophobic side of the membrane): 110 °
B4		active and stable for up to one month	not active	underwent structural changes	not denatured and are not desorbed from the surface	still functional after several weeks	still catalytically active	
B5		active and stable for up to one month	not active	underwent structural changes	not denatured and are not desorbed from the surface	still functional after several weeks	still catalytically active	
B6	readily dissociate in 60% ethanol and in 2% SDS							
